Reference: article PMC12170172, “Initiation of ERAD by the bifunctional complex of Mnl1/Htm1 mannosidase and protein disulfide isomerase” (Nature Structural & Molecular Biology, 2025)

Columns and labels:
Settings in all cases: both partners purified
[1] = target: T1, Mnl1 (C579S;C644S)–Pdi1 complex (S. cerevisiae, UniProt P38888 21-796; P17967 29-522, C579S | C644S); experiment: pull-down; as a6, but the Mnl1–Pdi1 complex was pretreated with DPS to induce disulfides between the Mnl1 loop cysteines and the active-site cysteines of Pdi1
T1 construct: Mnl1 (Htm1) of S. cerevisiae with both loop cysteines substituted; Pdi1 of S. cerevisiae, untagged; also called double-cysteine mutant; source: S. cerevisiae, overexpressed, purified (anti-FLAG M2 resin, Superdex 200); not shown: FLAG, C-terminal, kept
T1 sequence (looked up) 1: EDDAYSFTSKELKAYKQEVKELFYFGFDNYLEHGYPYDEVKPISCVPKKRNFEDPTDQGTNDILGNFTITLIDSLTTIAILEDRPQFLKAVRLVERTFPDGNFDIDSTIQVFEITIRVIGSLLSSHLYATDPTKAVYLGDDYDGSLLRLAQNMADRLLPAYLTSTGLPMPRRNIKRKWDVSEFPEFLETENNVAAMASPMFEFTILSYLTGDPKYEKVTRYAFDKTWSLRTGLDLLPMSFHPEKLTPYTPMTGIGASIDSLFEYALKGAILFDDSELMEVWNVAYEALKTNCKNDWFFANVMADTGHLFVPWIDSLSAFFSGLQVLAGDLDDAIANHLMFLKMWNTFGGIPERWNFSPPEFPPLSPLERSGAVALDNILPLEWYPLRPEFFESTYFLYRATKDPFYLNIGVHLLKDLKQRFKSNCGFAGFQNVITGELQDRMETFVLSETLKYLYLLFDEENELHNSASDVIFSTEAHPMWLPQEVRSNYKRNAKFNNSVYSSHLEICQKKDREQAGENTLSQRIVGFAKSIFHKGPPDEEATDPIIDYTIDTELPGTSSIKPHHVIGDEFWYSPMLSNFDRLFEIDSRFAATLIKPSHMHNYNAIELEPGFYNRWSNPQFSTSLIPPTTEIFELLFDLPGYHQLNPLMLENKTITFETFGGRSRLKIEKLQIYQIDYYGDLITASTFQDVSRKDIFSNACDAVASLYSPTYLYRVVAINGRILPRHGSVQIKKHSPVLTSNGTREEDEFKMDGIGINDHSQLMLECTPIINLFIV
T1 sequence (looked up) 2: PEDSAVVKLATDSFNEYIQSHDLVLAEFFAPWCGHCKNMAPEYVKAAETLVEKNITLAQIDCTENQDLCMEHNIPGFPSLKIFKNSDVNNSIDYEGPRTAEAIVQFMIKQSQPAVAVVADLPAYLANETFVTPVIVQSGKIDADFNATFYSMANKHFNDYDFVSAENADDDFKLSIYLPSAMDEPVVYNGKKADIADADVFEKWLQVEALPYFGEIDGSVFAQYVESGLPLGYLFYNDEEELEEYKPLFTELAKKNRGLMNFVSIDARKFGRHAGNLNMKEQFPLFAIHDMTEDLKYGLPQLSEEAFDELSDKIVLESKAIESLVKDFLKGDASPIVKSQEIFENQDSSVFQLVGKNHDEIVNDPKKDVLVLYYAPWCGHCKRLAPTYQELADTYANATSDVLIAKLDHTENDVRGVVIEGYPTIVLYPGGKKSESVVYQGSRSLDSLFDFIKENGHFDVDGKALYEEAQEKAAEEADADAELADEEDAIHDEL

[2] = target: T2, Mnl1 (C579S)–Pdi1 complex (S. cerevisiae, UniProt P38888 21-796; P17967 29-522, C579S); experiment: as above
T2 construct: Mnl1 (Htm1) of S. cerevisiae with a substituted loop cysteine; Pdi1 of S. cerevisiae, untagged; source: S. cerevisiae, overexpressed, purified (anti-FLAG M2 resin, Superdex 200); not shown: FLAG, C-terminal, kept
T2 sequence (looked up) 1: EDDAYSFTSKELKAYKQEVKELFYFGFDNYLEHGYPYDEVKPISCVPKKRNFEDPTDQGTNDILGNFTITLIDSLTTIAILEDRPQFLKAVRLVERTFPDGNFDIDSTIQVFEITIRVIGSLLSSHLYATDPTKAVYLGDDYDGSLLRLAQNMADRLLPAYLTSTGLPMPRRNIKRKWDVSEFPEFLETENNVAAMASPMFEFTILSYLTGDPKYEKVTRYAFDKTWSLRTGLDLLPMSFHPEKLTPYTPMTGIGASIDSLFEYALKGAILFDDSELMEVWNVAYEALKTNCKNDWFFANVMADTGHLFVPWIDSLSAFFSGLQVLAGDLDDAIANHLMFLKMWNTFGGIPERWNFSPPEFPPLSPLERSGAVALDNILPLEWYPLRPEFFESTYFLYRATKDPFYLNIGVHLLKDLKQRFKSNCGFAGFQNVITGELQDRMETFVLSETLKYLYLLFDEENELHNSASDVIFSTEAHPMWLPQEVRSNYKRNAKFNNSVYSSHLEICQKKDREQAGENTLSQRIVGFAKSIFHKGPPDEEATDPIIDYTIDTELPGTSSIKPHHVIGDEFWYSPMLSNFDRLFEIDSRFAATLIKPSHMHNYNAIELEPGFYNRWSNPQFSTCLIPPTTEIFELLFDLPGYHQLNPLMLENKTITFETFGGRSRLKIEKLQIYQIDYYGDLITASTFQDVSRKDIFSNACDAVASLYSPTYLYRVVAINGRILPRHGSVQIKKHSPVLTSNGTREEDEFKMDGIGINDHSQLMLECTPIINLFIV
T2 sequence (looked up) 2: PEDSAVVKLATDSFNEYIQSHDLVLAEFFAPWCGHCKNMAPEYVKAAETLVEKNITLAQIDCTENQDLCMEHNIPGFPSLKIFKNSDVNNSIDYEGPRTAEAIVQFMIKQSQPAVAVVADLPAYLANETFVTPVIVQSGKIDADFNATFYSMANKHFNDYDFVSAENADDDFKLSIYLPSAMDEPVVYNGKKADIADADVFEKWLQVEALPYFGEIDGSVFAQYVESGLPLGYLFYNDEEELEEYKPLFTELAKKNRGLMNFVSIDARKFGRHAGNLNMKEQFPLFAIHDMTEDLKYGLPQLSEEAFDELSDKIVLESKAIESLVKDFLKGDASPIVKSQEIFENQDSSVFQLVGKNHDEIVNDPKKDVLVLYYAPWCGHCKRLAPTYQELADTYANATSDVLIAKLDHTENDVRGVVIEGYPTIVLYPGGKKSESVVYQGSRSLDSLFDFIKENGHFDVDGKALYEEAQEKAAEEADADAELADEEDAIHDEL

[3] = target: T3, Pdi1 (protein disulfide isomerase) (S. cerevisiae, UniProt P17967 29-522); experiment: cross-linking; competition: RBΔS, RBun or RBsc incubated with Mnl1–Pdi1 complex at the indicated molar ratios (tenfold excess in Fig. 6) in 25 mM HEPES pH 7.4, 150 mM NaCl, 0.1% Nonidet P-40, 2 mM CaCl2, 30 °C 30 min; then DPS 30 °C 30 min, N-ethylmaleimide; SDS-PAGE, Coomassie blue
T3 construct: Pdi1, protein disulfide isomerase of S. cerevisiae, untagged; Trx domains a, b, b′ and a′; amino acids 24–500 could be modelled; source: S. cerevisiae, overexpressed together with Mnl1–FLAG (GAL1 promoter), purified as a complex
T3 sequence (looked up): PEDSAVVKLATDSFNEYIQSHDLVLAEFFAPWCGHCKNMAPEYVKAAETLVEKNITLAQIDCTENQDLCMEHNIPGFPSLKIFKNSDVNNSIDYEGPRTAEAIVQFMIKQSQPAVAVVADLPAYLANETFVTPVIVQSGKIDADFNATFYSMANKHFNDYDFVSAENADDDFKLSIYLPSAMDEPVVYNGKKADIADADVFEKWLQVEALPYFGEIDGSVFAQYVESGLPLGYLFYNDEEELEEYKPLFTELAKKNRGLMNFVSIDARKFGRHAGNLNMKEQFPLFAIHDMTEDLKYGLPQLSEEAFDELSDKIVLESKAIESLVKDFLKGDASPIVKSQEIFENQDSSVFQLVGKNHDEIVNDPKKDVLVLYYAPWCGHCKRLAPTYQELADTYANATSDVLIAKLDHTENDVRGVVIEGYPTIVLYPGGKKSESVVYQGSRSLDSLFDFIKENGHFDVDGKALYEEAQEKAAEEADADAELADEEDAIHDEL

binding result [1]: binds
binding result [2]: binds
molar excess for half-maximal inhibition of the Mnl1–Pdi1 disulfide adduct [3]: 2 fold molar excess
B1: RNase B, completely unfolded (reduced and denatured) (enzyme, UniProt P61823 27-150, looked up)
chain: KETAAAKFERQHMDSSTSAASSSNYCNQMMKSRNLTKDRCKPVNTFVHESLADVQAVCSQKNVACKNGQTNCYQSYSTMSITDCRETGSSKYPNCAYKTTQANKHIIVACEGNPYVPVHFDASV
modifications: N-glycan; cysteines reduced; DyLight 680 (NHS ester) label in the pull-downs
notes: RNase B, reduced and denatured; also called RBun; unfolded RNase B; source: prepared from RB with 6 M guanidine hydrochloride and 100 mM DTT, denaturants removed by dialysis and a desalting column
